Results from US20050147610A1.

B1: 268 (antibody, V domains shown)
VH: ZVQLVESGGGVVQPGRSLRLSCAASGFTFRNYGLHWVRQAPGKGLEWVAVIWYDGSNKYYADSVKGRFTISRDNSKNTLYLQMNSLRAEDTAVYYCARESYYYYGMDVWGQGTTVTVSS
VL: EIVMTQSPATLSVSPGERATLSCRASQSFNSNLVWYQQKPGQAPRLLIYGASTRATGIPARFSGSGSGTEFTLTISSLQSEDFAVYYCQQYNNWTWTFGQGTKVEIKR
B2: Murine anti-human IL-18 mAb (125-2H) (antibody, from another filing, V domains shown)
VH: EIQLQQSGPELVKPGASVKVSCKASGYSFTDYFIYWVKQSHGKSLEWIGDIDPYNGDTSYNQKFRDKATLTVDQSSTTAFMHLNSLTSEDSAVYFCARGLRFWGQGTLVTVSA
VL: DIQMTQSPSSLSASLGERVSLTCRASQDIGSKLYWLQQEPDGTFKRLIYATSSLDSGVPKRFSGSRSGSDYSLTISSLESEDFVDYYCLQYASSPYTFGGGTKLAIKR

What was measured:
[1] = biological target: NEM-huIL-18 (recombinant mature human IL-18 treated with N-ethyl maleiamide) (human) (UniProt Q14116); experiment: cell-based or functional assay
[2] = biological target: 125I labeled rhu-IL-18 (human) (UniProt Q14116); experiment: RBA: inhibition of 125I-rhu-IL-18 binding to IL-18Rαβ on KG-1 cells
[3] = biological target: NEM-huIL-18 (recombinant mature human IL-18 treated with N-ethyl maleiamide) (human) (UniProt Q14116); experiment: Biacore
[4] = biological target: (4C/A)-huIL-18 (4C/A mutant of mature human IL-18) (human) (UniProt Q14116); experiment: Biacore
[5] = biological target: (4C/A)-huIL-18 (4C/A mutant of mature human IL-18) (human) (UniProt Q14116); experiment: BIACORE
[6] = biological target: natural human IL-18 (endogenous, human whole blood) (human) (UniProt Q14116); experiment: cell-based or functional assay
[7] = biological target: recombinant mature human IL-18 (preparation not specified) (human) (UniProt Q14116); experiment: cell-based or functional assay

Row | Binder | KG-1 Assays (IC50, M), NEM-rhuIL-18 [1] [M] | IC50 [2] [nM] | Kd [3] [nM] | Kd [4] [nM] | Kd [5] [nM] | koff [5] [s⁻¹] | kon [5] [M⁻¹ s⁻¹] | WBA, Neutralization Potency in vitro (IC50, nM) [6] [nM] | KG-1, Neutralization Potency in vitro (IC50, nM) [7] [nM]
1 | B1 | 7e-09 |  |  |  |  |  |  |  | 
2 | B2 |  | > 300 | 0.2 | 0.2 | 0.55 | 0.00011 | 190000 | 3 | 0.2
